Assay results: patent US20260008856A1, “METHODS OF TREATING DISEASE USING ANTI-IL1RAP ANTIBODIES AND ANTIBODY DRUG CONJUGATES” (Bluefin Biomedicine, Inc., priority 2022, published 2026)

What was measured:
[1] = test system: IL-6 secretion in human whole blood cultures stimulated with HKCA; assay: IL-6 production in human whole blood cultures stimulated with heat-killed Candida albicans; assay type: cell-based; details: 24 hours, 1 μg/ml alone, combination 1 μg/ml BFB759 + 0.5 μg/ml adalimumab
Text: Materials included Human peripheral blood drawn from 5 healthy donors. Materials also included Anti-human TNF alpha (Adalimumab Biosimilar), BioXCell cat #SIM0001, lot #8024221F1; Heat-killed Candida albicans (HKCA), InvivoGen cat #tlrl-hkca, lot #6292-44-02; RPMI 1640 with L-glutamine and HEPES, Corning cat #10-041-CM; and Human IL-6 DuoSet ELISA, R and D Systems cat #DY206-05. Blood was drawn into heparin tubes from healthy volunteers. Whole blood cultures comprised of whole blood diluted with plain RPMI 1640 medium were set up in sterile 5.0 ml polypropylene snap cap culture tubes. One of the following treatments were added for 1 hour prior to either being left unstimulated or receiving stimulation with 1.5×10^6 cells heat-killed Candida albicans: medium alone (cells alone), 1 μg/ml IgG1 isotype control antibody alone, 1 μg/ml BFB759 alone, 1 μg/ml adalimumab alone, or one of two combination treatments of 1 μg/ml IgG1 isotype control antibody+0.5 μg/ml adalimumab or 1 μg/ml BFB759+0.5 μg/ml adalimumab. The final volume of each culture was 1.0 ml. Cultures were incubated for 24 hours at 37° C./5% CO2. Supernatants harvested from each culture in duplicate were frozen at −80° C. until assayed in duplicate for IL-6 levels by ELISA.

[2] = test system: TARC expression in PBMCs stimulated with HDM and IL-4; assay: TARC in PBMCs treated by HDM and hIL-4; assay type: cell-based, human
Procedure: 0.2 million PBMCs in 100 ul medium (RPMI1640, 10% heat-inactivated FBS) were added to each well of 96 well cell culture plate. BFB759 at multiple concentrations in 50 ul medium was added to the wells. The cells were incubated in the incubator for 45 min. Then, 50 ul HDM solution (final concentration 10 ug/ml) was added to the wells. After 7 days incubation, the supernatant was transferred to a new 96 well plate, and used in TARC ELISA right away, or frozen in −80 C freezer for ELISA later. For the combination studies of BFB759 with other drugs, the single agent or combination of drugs were added to the PBMCs, incubated for 45 min, then HDM solution, or HDM and IL-4 or IL-13 solution were added to the wells. The assay was incubated for 7 days, and the supernatant was harvested for TARC ELISA.
Dupilumab is approved for treatment of AD (Atopic Dermatitis). It inhibits IL-4/13 signaling by blocking their binding to IL-4Ra. […] (FIG. 15)
In the data shown in FIG. 15, HDM was used at 10 ug/ml, IL-4 was used at […], antibodies were at three different concentrations as shown in the graph. Data shown are mean±s.d.

[3] = test system: normal human dermal fibroblasts (NHDF); assay: IL-6 and IL-8 production in NHDF stimulated with cytokine combo incl. TNF-α; assay type: cell-based; details: cytokine combo IL-1α/β, IL-36α/β/γ, antibodies 0-20 ug/ml, BFB759 0.5 ug/ml in combination
Procedure: Human NHDF cells were plated on 96-well, flat-bottom plates at 4,000 cells/well. […] For combination therapy, 0.5 ug/ml BFB759 was mixed with adalimumab or isotype control antibody at increasing concentrations (0-20 ug/ml, 5-fold dilution) and incubated with cells in duplicate for 45 minutes, prior to the addition of cytokine combo. The plates were then incubated overnight at 37° C., 5% CO2. 24 hours after treatment, supernatants were transferred and assayed for IL-6 and IL-8, as per manufacture's protocol (R&D Systems; Human IL-6 DuoSet ELISA, Human IL-8/CXCL8 DuoSet ELISA). The raw assay data were analyzed using GraphPad Prism 9 software to perform a non-linear regression.

H69 = assay: Flow cytometry binding to endogenous cell line H69; assay type: cell-based; set-up: key: (−): No binding; (+): Weak binding; (++): Moderate binding; (+++): Strong binding; details: primary antibody 1 ug/ml
Procedure: Staining for flow cytometry was performed in 1× cold PBS with 0.5% BSA. Primary antibodies (1 ug/ml) were incubated with live cells on ice for 30 minutes, after a brief wash, cells were incubated with Alexa Fluro® 488-conjugated anti-human IgG secondary antibody @1:1000 (709-546-149, Jackson ImmunoResearch). Acquisition of the data was performed on a MACSQuant® Flow Cytometers (Miltenyi Biotec) and analyzed with FlowJo software.

IL-1α signaling = assay: IL-1 signaling reporter cell assay, IL-1α; assay type: cell-based; details: serial dilution of antibody
Procedure: (§1) HEK-Blue IL-1β cells (Invivogen, CA) were harvested and plated in technical duplicates at a density of 50,000 cells per well in a 96-well plate. IL1RAP antibodies, or a corresponding human IgG1 control antibody was added to the wells in a concentration range of […]. After incubating cells with antibodies for 30 minutes, IL-1β was added to a final concentration of 0.5 ng/ml, and the plate was incubated overnight. To examine whether any of the antibodies were able to induce IL-1R activation in the absence of IL-1β, samples were incubated with 10 μg/mL antibody without addition of the ligand. The following day, substrate was added to the supernatants, and samples were analyzed for absorbance at 620 nm.
In addition, serial dilution of IL1RAP antibodies was performed to determine EC50 against IL-1β and IL-1α (FIGS. 6B and 6C). Many of these antibodies, including 37E10_15B5 and 44E5_15C5 can block IL-1β and IL-1α signaling with subnanomolar EC50.

IL-1β signaling = assay: IL-1 signaling reporter cell assay (HEK-Blue IL-1β cells), IL-1β; assay type: cell-based
Procedure: as §1

B1: 37E10_15B5: human anti-IL1RAP antibody BFB759 (i.e., 37E10_15B5), VH SEQ ID NO: 64, VL SEQ ID NO: 68 (antibody, V domains shown)
VH: QVQLVESGGGVVQPGRSLRLSCAASGFTFRSHGMHWVRQAPGKGLEWVAVIWYDGSSEYYADSVKGRFTISRDNSKNTLYLQMNSLRAEDTAVYYCARENVYGSGWFFDYWGQGTLVTVSS
VL: EIVMTQSPATLSVSPGERASLSCRASQSVGSNLAWYQQRPGQAPRLLIFGASTRATGIPARFSGSRSGTEFTLTISSLQSEDFALYYCQQYNNWPPWTFGQGTKLEIK
[1]
  inhibition of IL-6 secretion: inhibit IL-6 secretion
[2]; 1 or 0.1 ug/ml of BFB759, alone or combined with dupilumab
  inhibition of TARC expression in the HDM and IL-4 model: minimal inhibition
[2]; HDM 10 ug/ml, IL-4 750 ug/ml, three antibody concentrations
  inhibition of TARC expression in the HDM and IL-4 model: partially inhibits
[3]
  IL-6 production: dose-dependent decrease
  IL-8 production: dose-dependent decrease
H69
  binding to H69 by flow cytometry: (−)
IL-1α signaling
  EC50 against IL-1α: subnanomolar
IL-1β signaling; HEK-Blue IL-1β cells, antibody 1-10 pg/ml, IL-1β 0.5 ng/ml
  inhibition of IL1R1 / IL-1 signaling: potent inhibition
IL-1β signaling; serial dilution of antibody, reporter assay
  EC50 against IL-1β: subnanomolar
